Experimental data: article PMC9461663, “Covalent Inhibition of Pyruvate Kinase M2 Reprograms Metabolic and Inflammatory Pathways in Hepatic Macrophages against Non-alcoholic Fatty Liver Disease” (International Journal of Biological Sciences, 2022)

Biological target: Pyruvate kinase M2 (mouse (endogenous in RAW264.7)) (UniProt P52480)
Test: not stated; PKM2 tetramer in LPS-treated RAW264.7 cells with celastrol (Fig. S4); method not given

Pyruvate kinase M2, P52480 1-531 (enzyme; other documents disagree on this pair), sequence (P52480 whole entry): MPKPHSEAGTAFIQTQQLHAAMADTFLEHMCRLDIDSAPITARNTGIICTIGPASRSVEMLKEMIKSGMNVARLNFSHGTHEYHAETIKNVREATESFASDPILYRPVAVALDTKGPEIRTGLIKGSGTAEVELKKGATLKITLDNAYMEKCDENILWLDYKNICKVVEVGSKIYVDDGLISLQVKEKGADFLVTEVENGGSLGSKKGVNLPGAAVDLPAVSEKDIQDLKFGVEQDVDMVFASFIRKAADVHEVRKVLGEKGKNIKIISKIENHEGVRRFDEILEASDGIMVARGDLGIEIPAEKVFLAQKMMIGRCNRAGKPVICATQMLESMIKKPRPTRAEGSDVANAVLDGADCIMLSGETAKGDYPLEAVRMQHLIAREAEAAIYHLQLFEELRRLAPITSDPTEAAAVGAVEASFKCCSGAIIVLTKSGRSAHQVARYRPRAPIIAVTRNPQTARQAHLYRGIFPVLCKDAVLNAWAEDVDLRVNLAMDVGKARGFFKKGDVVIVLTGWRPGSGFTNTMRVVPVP

Pyruvate kinase M2, P52480 1-531 (enzyme; other documents disagree on this pair)
stoichiometry N: 4
